# Target: T1, MBP-GlnR (Mycobacterium smegmatis (SMR5?)) (UniProt A0R4C4)
# T1 sequence: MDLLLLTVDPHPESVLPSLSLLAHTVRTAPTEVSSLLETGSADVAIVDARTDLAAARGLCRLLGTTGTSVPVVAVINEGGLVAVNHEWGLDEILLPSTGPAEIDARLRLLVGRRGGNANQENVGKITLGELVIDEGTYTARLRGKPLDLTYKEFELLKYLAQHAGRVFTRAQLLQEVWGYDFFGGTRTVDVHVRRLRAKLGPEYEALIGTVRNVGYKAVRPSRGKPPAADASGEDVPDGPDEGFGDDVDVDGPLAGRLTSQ
# Experiment: EMSA
# Conditions: GlnR: DIG Gel Shift Kit (Roche) buffer, 6% native PAGE, 0.5x TBE; AmtR: 20 mM Tris-HCl pH 7.9, 25 mM KCl, 1 mM DTT, 5 mM MgCl2, 0.5 mg/ml BSA, 5% glycerol …
row,Sequence,binding
1,AACGGTGTGCTTCCTCCGCTGTAGGTGGATCACCGCGTGAAGCGGGTGACCGGTGCAGGGTCGGCGCAACTTACTGCGCTTGGAAAATGCTCGCGCAGGAACGTTTCGGTGGATCCCGTCGGCAATGTCGGTGACGTTAACTCTGCACGGCCCCGCGTTACGTTGTGGTGACCTGACGCAACGGATTTCGTTGTGTGTCCGGTAGGCCCGCGTGACGACGAACCCGGCCGGCCGATGTTCGGCCGACCGGGTCGTCACGAGGTCACGGCTA (double strand) [msmeg_2526 upstream],binds
2,AGGCTTTTCGCCGGCTGCTGTGATCACACCAAGATCGTCGGCGCAGTCGATGACCTAGATGTTGTCGTGAAGTTTCAAGAATGTGACGTCATCAGTCGGCGGCTGCGTCGACCGCCAGCAGCAGTCGCAACGCGCCCGCATCGCGAGGGACTGCCGGGTCGAGGCCGGTACTGCTGGTCACCCTGGCCAGTCGGTTGATGACGGTGTTGCGATGGCAGTAGAGCCTGCGAGCGGTCTCGGTGACGGAACCGGTGTCGAGATAGATGCGCAGCGTGTCCGTGAGCAAGGTCTGATCGCGCG (double strand) [msmeg_3400 upstream],binds
3,CAAACATCTCCTCACGGTGGCGGCTCGAAACAAGCCGTTCACTCGCAGTAACCGACGTTTCTGTTACGGAGATGGTCGCCAAGTGTTGCAGCGTGGTTAAAACTCAAACCGCGCTTTACAGCGGGTTGCCCCATCGGCCCGTGAACGCAACCTGCTCAAGTGCCAGACGTTCACGCGGGCGGCTGTCGCGTTCGGCGATGGCCTCGTCGGCCGTCGCGTAGTCACCGAGGTGTCCCAGCG (double strand) [amt1 upstream],binds
4,CATGTGCCACCGTCGCGGCACGCGCGCCGACGAGTTCGCGCGCAGCCGCGGGCAGTTCGGCCGTGGCGGCGCGCAGACCGGCCACCGAGGTCGCCGCGTCGATGTGGCGCTGCACGAGGTCGGGGGCGGGCATACCGGCGATTGTGACAGGCCCACGGGCGGTGAGGGTTCTGCAACCGAATGCTTACCGACGGCTACATGAACGAAACATTCGGGTGACGCCGAGGACACGCGCCCATTGTTATCTGTCATCTGACAGGTAAGAGCTGGCGGCAGCGCCCCTAGCCAGAGAGAAAACCC (double strand) [msmeg_2184 upstream (GlnR probe)],binds
5,CCAGTCCAGGAAATCACCGGATATCGGCTGGCGCGTCATTTTGACGGAAAACGTGGGGTACGCCGTTTCGCCGGGTCACCTCGGCGAACCACCGTGCGCTGGCCTTGGGCGTGCGGACCTGCGTGGCGTAATCGACGTGGATCAGGCCGAACCGCTTGGCGTAGCCGTACGCCCACTCGAAGTTGTCCAGCAGGCTCCACACGAAATAACCGCGGATGTCGGCACCATCGTCGATCGCCCG (double strand) [narK upstream],no binding
6,CCCAGCTCGCCACTCTCGATGGTGGCCAGCACCAGGGACTTCTCGGGCACGAACCCGAGCACGGCGGGCAGCGCCGCGATCAACGATCCGGGCCGGTTGATACGAAAATCCGGTGTGTGCGGTGAAGGTGTCATGTGCCGACCGTGGCAACCGGCGCCGACGCCGTTCACCCCGAAAACCGGCTGCGACGAGTGGCTGTGGACGAAATCGGCTCTGGGGACAACTTCCGAAACAAACTGTTCACGCGCCATTGCGCGTCTCCGGCGTGCACGCGCGCCGACAGCGGCGTACACACTGACC (double strand) [msmeg_2748 upstream],no binding
7,CCGCGACGTCGACCGCGCGCCCGGTCACCGGGCCCGGACCCGGCAAGGTGGTCGTGGTGTCGACGACAGGGGACCCGGCGACGCCGTACCAGGCCGGTGTGGACCTCGCCCGGCAAATGGGCGCGGCCCTGATCAGTTTCGACGGTGCGCAGCACACCGTGGTGTTCAACGGAGATGCCTGCGTCGACACCGCGGTGTTGCGCTTCCTGACCGATCTGCAGTCGCCCCCGGGCAACCTTGCCTGCTAGCTCTTGCACCCCCGTAACACAGATTTAACAGCCGGTGCATACGCTGCGGAGC (double strand) [glnA2 upstream],binds
8,CCGGATGTTCCTTTCAGCTCTGCAGATTCGGGTGCCGTCAGTCCCAGTGCGCCTTGAAACCCAGTGCCGGGACGGTCTCCCCCAGCCCGGGTGTGGAGGCCTTGCGGATCAGGGCCAGTGTCTCGGCATACGTGGTGTGGTTCTCCGCGAGCCGCTCGGCGGGCACGGGCAGGCCCGCGAACTCGAACGCCGCGGAAATCTGTTCCTGCGATGGCATGAAATCGGACATGGTTCTCCTCGCTCTCAGAGGTTGGGGGTGAAGTCGACGAAACCGGCGATCCGCTCGAAGGCCCGGCCTG (double strand) [msmeg_1090 upstream],no binding
9,CGGGGTCATCGGGCGGTCCGGCACGCCCGGCAAGGCCTGGGCCTGGCAGACCCGCTCGTGGTCGAAGGGCAAGATCCACCCCGCGGCGGTGCTCTATCAACACACCATCGACACCGCGTCGAACCCCGGACCGTTGGTCGGCGGCATCCGCGTGGATGTCAACGACGCCTTGGCCCAGGACATCGGCCAGTGGAATTTCCACCCCTGAGGTCACATCACTTTAATCTCGACGCAATTGCGTTGCCATACCGGTGATCTCTACTGAAGGCGCCAGCAGCCCCCTTCAGAGGACACCCGCCC (double strand) [msmeg_6816 upstream],no binding
10,GAACAACCTTTCCCGATGATTGCAGCGCATTTTGGGCCGATCGCCTCGGCCGCGGTGCAGGAGGTTAAACACACTGTGCTGGTGTCGAATCGGGACGTTAGAGCGCGCGTGTTACTGCCAAATGTCTGTGTGTGACGAACAAATTAACCTCGACATGACATGCCGCTGGTTTGCCGCCGGTTCTCGACGCCGTGACACCGGCGTGGCGTGTGTAACGGGGAGGTAGCCTGCGTCGATATG (double strand) [urtA upstream],binds
11,GCCCTCCGGGCGGTATCTGCGCCTGAACTTCTCCGGGCCGGAGCCGGACCGGTTCGAGGAGGCGGCGCGCGTGATCGGACGGTCGCTGCGCAGACAGCTGTGACCCGGCGGTTGTGGCCTGACTGTGGTCCGGAGAGCTCACCGGTCGGGGACCTCACATGTGCGTTGCCGAAGACGTGAGCACACCGTGATGGGGGCTTCACACAGCGCGACATCGCGGCAATATCGGGTTCTTAGCCTCGCCCTATG (double strand) [nirB upstream],no binding
12,GCGAGGCAGACTAGCGGCATGACCGATGACGGCTACACAGTCGGTGACTACCTCCTGGACCGGCTCGCCGAACTCGGCGTGACCGAGGTCTTCGGCGTCCCCGGCGACTATCAGCTGGAGTTCCTCGACCACGTCGTGGCGCACCCGCGCATCACGTGGGTCGGCGGCGCGAACGAACTCAACGCGGGCTACGCGGCCGACGGCTACGGCCGGCTGCGGGGCATGGCGGCGTTGGTCACCACGTTCGGCGTCGGTGAGCTCTCGGCGGCCAACGCCATCGCAGGCAGCTACGCCGAGCAC (double strand) [msmeg_5734 upstream],no binding
13,GGACCGGGACCGGATAGCCAGGATCCCAACCGGGAGCCGTTTGTGCGGGCCATGATGTCAGGATAGGCGCGTGCGGATGTCCGGCCGCCGGGTGCCACGTCGCGACGCGGTTCACACCGATGTGTGCTGGAGTTCACCGGCGGACACGCTCAAACCGATTGCGTAACGTCGGCGCAACATCGGGTTGACGACTGCGCAACATCGTGTCCTTAGCGTCAACGCGCGGGTTACCAGTAAAGGAGAACACTCA (double strand) [glnA upstream],binds
14,GGGGTCACCACCTGCTGCTCGGCATCCACCATGTATCCCAGGAACGCACCGGCCCGGCGCGAAACGTGGTAGTGCACCACGAGTTTGCGCCCGCATCCGGTGCAGCCCACCAGGCCGTCGATCTCGACCGCGGCGGTGGTGACGGCGCGGCAGTGCGTACAGAACACGTCGCGGTGGGCGACCTCGGTGCTCGCGATCGTGATCTCGTCGTCGGCGATACCGTGCGCGAGGGCGTGGGCACGCACACGCAGATTCAGGTGAGCGGGGCCGGCGGTCATCAGTCGCCAGCCCACCACCGCG (double strand) [msmeg_4638 upstream],no binding
15,GGGTCTCTCCAGGGAGGCGATGAGGGTGCGGGCGGCGACAGTGCCGGGAGCCGGATGATCGGCTGGGTCAATTACAGGCCCCGGCCATTGCCGTGTGGTTAGGGATGGACTACTTCTGAATTGCCGAAATCTCACAGCGGCAATGTGCTCGTAATAAGTGCAGCATGCGCCTTGACCTCAACCTCACTTGAGGTGCCAGGCTGGCTCTCATGACATGTGGACTCCAGTGGCCAGAGGCGGTAAACCGCCGCGAACCCGGGGGTAAACCCCCTGGGGACCTGGATCGGCACGCAGTAACTT (double strand) [msmeg_0572 upstream],binds
16,GGTGCCGACCGCCCCGACGACGAGCGCGGCCACCGCCGCGACGAACCCGACCACCAGTCTGCGCACCGGGACATTGTTGCCCACGAGACCGGCAAAGATTCGCTCGGCGCGGCTGACGAGCAGGTGAGGCGTTATCCTCGTAACACCAAAGGCCGGTAACGGCTACATGTCAGTCATGAATCCGGAAGATCACCCGACACCGGCGTCTGTGTTCTCCCGCAGAGATTCCTGACGAGCCGGGAGGACTTG (double strand) [glnR upstream],no binding
17,GGTGGCGGCGAGTTCGATACCGCTGTCGCTCAACGTGACCGGCGGCCACCCCAATCCGGTGAGGTCCACGAGCCTGCGCAGCTGAGGTTGGGGCTCGGAAAACAGCCAGGTCCCACCGGCCAACACCGCGTCGCCGGCCCCCAGCGGCCACACCTCCTCGCGACGGGTCGGCCGGTCCACCACCTCGACGGTGTTGAGGTCCATTCCCGCGACCGTAACCAAAGTGAACGCGCCGTGCACCATGAACCGTGGCACAACGCTCGGCGTGCGAACCGCCGCGATCTGTCCGATTCTTAGTCG (double strand) [msmeg_1293 upstream],no binding
18,GTCCGCCAAGTTACCGGCCGGAAAAATAAGGTGCGCGCCTCCCTTATCCTTGTTGGGACTCATTCCGGCTCGATCCCACATGCGAAAGGTTGATCAGGTGGCGCTCGTCGTACAGAAATACGGCGGATCCTCGGTGGCGGACGCCGAGAGGATCCGACGGGTCGCCGAGCGGATCGTCGAGACCAAGAAGGCGGGCAACGACGTCGTCGTCGTCGTCTCCGCGATGGGTGACACCACCGATGACCTGCTGGACCTGGCGCGCCAGGTGTCGCCCGCGCCGCCGCCGCGCGAGATGGACAT (double strand) [msmeg_6258 upstream],no binding
19,GTGGCGCGGCAGGGCGGCCACGGGCAGGCCCTGCTGGTCTTCGACACCGGTGACGGCCGCACGCTGCAGACCCATCCGCTTCCCGAGGCCACCGGCTGGCCGGTCGGGGTATCGATCGGCCACGACGGCCGCGTGGTCACCGCGACGAGTGACGGGCAAGTGTATGGCTTCTCACCGGCATGATGCCGGAAGTTTTACAGGGAATTGACGAAATCTCCACAGAAAGTGGTGGGCTTCGTGTGAGGATTTGGCGCGGCAACCGTGCAAGATCAATGAATTTCTGGGGGAAGGCAATAACCA (double strand) [msmeg_1052 upstream],no binding

# — PMC4222082, “Nitrogen starvation-induced transcriptome alterations and influence of transcription regulator mutants in Mycobacterium smegmatis”
